Assay: yeast display, Sf9 membrane polyspecificity reagent, FACS + sequencing; frameworks hold sequencing errors
Outline: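 Using colony PCR, genes from sorted yeast display clones were amplified, then sequenced on MiSeq at 2 × 250 and filtered by CDR length. The clones had been stained with 10% biotinylated, detergent-solubilized Sf9 membrane reagent for 1 hour at 4 °C and sorted by FACS into low and high (top ~1%) gates on anti-HA and streptavidin fluorescence. Polyreactivity labels come from the gate of origin.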

Sequence | polyreactivity (PSR sort gate)
QVQLVESGGGLVQAGGSLRLSCAASGNTFVPYAMGWYRQAPGKERELVAAISWRGGSTYYADSVKGRFTISRDNAKNTVYLQMNSLKPEDTAVYYCAARTFYRPGLAGGYWGQGTQVTVSS | high polyreactivity
QVQLVESGGGLVQAGGSLRLSCAASGNTFVRNAMGWYRQAPGKERELVASISQSGGTTYYADSVKGRFTISRDNAKNTVYLQMNSLKPEDTAVYYCNAARYRRSPGHTKYNYWGQGTQVTVSS | high polyreactivity
QVQLVESGGGLVQAGGSLRLSCAASGNTFVRNVMGWYRQAPGKERELVAAITWRSVRTYYADSVKGRFTISRDTAKNTVYLQMNSLKPEDTAVYYCAAASASRHGEYDYWGQGTQVTVSS | low polyreactivity
QVQLVESGGGLVQAGGSLRLSCAASGNTFVSNARGWYSQAPGKEREWVAAIDSGGSTNYADSVKGRFTISRDNAKNTDYLQMNSLKPEDTAVYYCNRTSVYYYYWGQGTQVTVSS | low polyreactivity
QVQLVESGGGLVQAGGSLRLSCAASGNTFVTYTMGWYRQAPGKERELVADISSGGSTYYADSVKGRFTISRDNAKNTVYLQINSLKPEDTAVYYCAVQQAVFRSYYIYHRYYWGQGTQVTVSS | high polyreactivity
QVQLVESGGGLVQAGGSLRLSCAASGNTFWDNAMGWYRQAPGKERELVAAIRWSTGSTHYADSVKGRFTISRDNAKNTVYLQMNSLKPEDTAVYYCAATDYYYYRDKYYGYDYWGQGTQVTVSS | low polyreactivity
QVQLVESGGGLVQAGGSLRLSCAASGNTFYGYALGWYRPAPGKERELVASITLSGDSTHYADSVKGRFTISRDNAKNTVYVQMNSLKPEDTAVYYCAGVYTYPLGYYHYTYDYWGQGTQVTVSS | low polyreactivity
QVQLVESGGGLVQAGGSLRLSCAASGNTFYGYAMGWYRQAPGNERELVASITLSGDSTYYADSVKGRFTISRDNAKNTVYLQMNSLKPEDTAVYYCAGVYTYPLGYYHDTYDYWGQGTQVTVSS | low polyreactivity
QVQLVESGGGLVQAGGSLRLSCAASGNTFYRYAMGGYRQSPGKERELVAAITWSGSRTYYADSVKGRFTISRDNAKYTVYLQMNRLKPEDTAVYYCAAPFWYVGPAMDYWGQGTQVTVSS | low polyreactivity
QVQLVESGGGLVQAGGSLRLSCAASGNTFYWYVMGWYRQAPGKERELVARITSSGGSTNYADSVKGRFTISRDNAKNTVYLQMNSLKPEDTAVYYCAADDIYLYGGGTDYYFWGQGTQVTVSS | low polyreactivity
QVQLVESGGGLVQAGGSLRLSCAASGNTIGSNAMGWYRQAPGKERELVATISKRGGSTYYADSVKGRFTISRDNAKNTVYLQMNSLKPEDTAVYYCATTSTRYWAFSSRPDYRDDYWGQGTQVTVSS | high polyreactivity
QVQLVESGGGLVQAGGSLRLSCAASGNTIYQYAMGWYRQAPGKERELVAAISSSVDRTYYADSVKGRFTISRDNAKNTVYLQMNSLKPEDTAVYYCAAASGGRWRVGYWGQGTQVTVSS | high polyreactivity
QVQLVESGGGLVQAGGSLRLSCAASGNTLGYNAMGWYRKAPGKERELVATIRGSGGITYYADSVKGRFTISRDNAKNTVYLQMNSLKPEDTAVDYCAKVYKYRVKGDHWGQGTQVTVSS | low polyreactivity
QVQLVESGGGLVQAGGSLRLSCAASGNTLRYNVMGWYRQAPGKERELDAAISGGGSTSYADSVKGRFTISRDNAKNTVYLQMNSLKPEDTAVYYCAKRSFVGGRGRDSDYWGQGSQVTVSS | low polyreactivity
QVQLVESGGGLVQAGGSLRLSCAASGNTLTYNVMGWYRQAPGKERELVAAISGRGGRTYYADSVKGRFTISRDNAKNTVYLQMNCLKPEDTAVYYCAAKSRNGESGGFDYWGQATQVTVSS | high polyreactivity
QVQLVESGGGLVQAGGSLRLSCAASGNTLVKNAMGWYRQAPGNERELVAAISSSGGRTYYADSVKGRFTISRDNAKNTVYLQMNSLKPEDTAVYYCAARYPSGYYYWGQGTQVTVSS | high polyreactivity
QVQLVESGGGLVQAGGSLRLSCAASGNTTPVNAMGWYRQAPGKERQLVAAITQSGGSTYYADSVKGRFTISRDNAKNTVYLQMNSLKPEDTAVYYCAADYGHYYGLYYWGQGTQVTVSS | low polyreactivity
QVQLVESGGGLVQAGGSLRLSCAASGNTYYGNTKGWYRQAPGKERELVAAITSGGSTYYADSVKGRFTISRDNAKNTVYLQMNSLKPEDTAVYYCNVVFYEYSSVSYDYWGQGTQVTVSS | high polyreactivity
QVQLVESGGGLVQAGGSLRLSCAASGPIFKRNAMGWYRQAPGKERELVAAISGSGGRTYYADSVKGRFTISRDNAKNTVYLQMNSLKPEDTAVYYCNAGGSYYARGMDYWGQGTQVTVSS | high polyreactivity
QVQLVESGGGLVQAGGSLRLSCAASGPIFWGYAMGWYRQAPGKERELVAAITSGGNTNYADSVKGRFTISRDNAKNTVYLQMISLKPEDTAVSYCAKRTRPWRDFDYWGQGTQVTVSS | low polyreactivity
QVQLVESGGGLVQAGGSLRLSCAASGPIFYRYAMGWYRQAPGKERELVAAISRGGRTYYADSVKGRFTISRDNAKNTVYLQMNRLKPEDTAVYYCATTYSLGSWGYDYWGQGTQVTVSS | high polyreactivity
QVQLVESGGGLVQAGGSLRLSCAASGPIVAYNAMGWYRQAPGKERELVAAISYSGGSTYYADSVKGRFTISRDNAKNTVYLQMNSLKPEDTAVYYCNAVYRYRTYRYDYWGQGTQVTVSS | high polyreactivity

Sequence | polyreactivity (PSR sort gate)
QVQLVESGGGLVQAGGSLRLSCAASGPTFDYYAMGWYRQAPGKERELVAAISYSGGNSYYADSVKGRFTISRDNAKNTVYLQMNSLKPEDTAVYYWAANPAARDGRKTGYFCGQGTQVTVSS | high polyreactivity
QVQLVESGGGLVQAGGSLRLSCAASGPTFGVNAMGWYRQAPGKERELVAVISSTGSTNYSDSVKGRFTISRDNAKYTVYLQMNSLKPEDTAVYYCAVGPNSVGNRSYGFDYWGQGTQVTVSS | low polyreactivity
QVQLVESGGGLVQAGGSLRLSCAASGPTFQIYAMGSYRQAPGNERELDAAIRWRGGTTYYADSVKGRFTISRDNAKNTVYLQMNSLTPEDTAVYYCAADYYWSPYYVYQFDYWGQGTQVTVSS | low polyreactivity
QVQLVESGGGLVQAGGSLRLSCAASGPTFWVYAMGWNRQAPGKERELVAAISRSGVSTYYADSVKGRFTISRDNAKNTVYLQMNSLKPEDTAVYYCAAPLIYTPLKYHYWGQGTQVTVSS | low polyreactivity
QVQLVESGGGLVQAGGSLRLSCAASGPTNAMGWYRQAPGKERELVAAITKSGGSTYYADSVKGRFTISRDNAKNTVYLLMNSLKPEDTAVYYCALILRHTAYYYWGQGTQVTVSS | high polyreactivity
QVQLVESGGGLVQAGGSLRLSCAASGQIFSRYAMGWSRQAPGNERELVAAITWSGGRTYYADSVKGRFTISRDNAKYTVYLQMNSLKAEDTAVYYCAATRYPLPEYYWGQGTQGTVSS | high polyreactivity
QVQLVESGGGLVQAGGSLRLSCAASGQKFEYNAMVWYRQAPRKERELVAVITYTYYADSVKGRFTISRDNAKNTVYLLMNCLKPEATAVYYCAVLYSEEILRNDNGVRFDYWGQGTQVTVSS | low polyreactivity
QVQLVESGGGLVQAGGSLRLSCAASGQTIAAYVMGWYRQAPGKERELVARISRSGGSTYYADSVKGRFTISRDNAKNTVYLQMNSLKPEDTAVYYCAAARPYKTSLPGAPYDYWGQGTQVTVSS | low polyreactivity
QVQLVESGGGLVQAGGSLRLSCAASGRIFAAYAMGWYRQAPGKEREFVAAIRLSGGSTYYADSVKGRFTISRDNAKNTVYLQMNSLKPEDTAVYYCAARYPGVARFYYWGQGTQLTVSS | high polyreactivity
QVQLVESGGGLVQAGGSLRLSCAASGRIFAAYAMGWYRQAPGKERELVAGISRGGRTYYADSVKGRFTISRDNAKNTVYLQMNSLKPEDTAVYYCNKAPSWWDVRVPFDYWGQGTQVTVSS | low polyreactivity
QVQLVESGGGLVQAGGSLRLSCAASGRIFAAYAMGWYRQAPGKERELVDAISSTGGTTYYADSVKGRFTISRDNAKNTVYLQMNSLKPEDTAVYYCATTVIVTKGSWHYSYDYWGQGTQVTVSS | low polyreactivity
QVQLVESGGGLVQAGGSLRLSCAASGRIFAENAMGWYRQAPGKERELVAAITDGGGSTYYADSVKGRFTISRDNAKNTVYLQMNSLKPEDTAVYYCNAYRYHLGVDFDYWGQGTQVTVSS | low polyreactivity
QVQLVESGGGLVQAGGSLRLSCAASGRIFAFNAMGWYRQAPGKERELVAAITGRGGRTYYADSVKGRFTISRDNAKNTVYLQMNSLKPEDTAVYYCAAQRYINYDYWGQGTQVTVSS | high polyreactivity
QVQLVESGGGLVQAGGSLRLSCAASGRIFAFYAMGWYRQAPGKERQLVAVISKSGGTTYYADSVKGRFTISRDNAKNTVYLQMNSLKPEDTAVYYCNKRVFYRHGYSYNYWGQGTQVTVSS | high polyreactivity
QVQLVESGGGLVQAGGSLRLSCAASGRIFAFYAMGWYRQAPGKVREFVAAITKSGGSTYYADSVKGRFTISRDNAKNTVYLQMNSLKPEDTAVYYCAADYWYPTTYYLYDYWGQGTQVTVSS | low polyreactivity
QVQLVESGGGLVQAGGSLRLSCAASGRIFAFYARGSSRQAPGKERQLVAVISKSGGTTYYADSVKGRFTISRDNAKNTVYLQMNSLKPEDTAVYYCNKRVFYRHGYSYNYWGQGTQVTVSS | high polyreactivity
QVQLVESGGGLVQAGGSLRLSCAASGRIFAGYALGWYRPAPGKERELVATSTRGGSTNYADSVKRPFTISRDNAKNTVYLQMNSLKPEDTAVYYCAAPYSSYKVRPYDYWGQGTQVTVSS | low polyreactivity
QVQLVESGGGLVQAGGSLRLSCAASGRIFAHYAMGWYRQAPGKERELVADITDGGSTYYADSVKGRFTISRDNAKNTVYLQMNSLKPEDTAVYYCATRRGPWPSEYDSWGQGTQVTVSS | low polyreactivity
QVQLVESGGGLVQAGGSLRLSCAASGRIFAKNVMGWYRQGPGKEWELVAAISRSGGSTYYADSVKGRFSISRDNAKNTVYLQMNSLKPEDTAVSYCGAYYGPDSARYYGGYEYWGQGTQVTVSS | high polyreactivity
QVQLVESGGGLVQAGGSLRLSCAASGRIFALNAMVWYRQAPGKERELVAAITWGGGSTYYADSVKGRFTISRDNAKNTVYLQMNSLKPEDTAVYYCAADVPSRVYTVISVEVEYWGQGTQVTVSS | low polyreactivity
QVQLVESGGGLVQAGGSLRLSCAASGRIFANYARGWYRQAPGKERELVAAITASGGSTYYADSVKGRFTISRVNAKNTVYLQMNSLKPEDTAGYYCAKGYRLYTMYSWGQGTQVTVSS | high polyreactivity
